T1: IRF2 (mouse, UniProt P23906 1-349)
T1 sequence: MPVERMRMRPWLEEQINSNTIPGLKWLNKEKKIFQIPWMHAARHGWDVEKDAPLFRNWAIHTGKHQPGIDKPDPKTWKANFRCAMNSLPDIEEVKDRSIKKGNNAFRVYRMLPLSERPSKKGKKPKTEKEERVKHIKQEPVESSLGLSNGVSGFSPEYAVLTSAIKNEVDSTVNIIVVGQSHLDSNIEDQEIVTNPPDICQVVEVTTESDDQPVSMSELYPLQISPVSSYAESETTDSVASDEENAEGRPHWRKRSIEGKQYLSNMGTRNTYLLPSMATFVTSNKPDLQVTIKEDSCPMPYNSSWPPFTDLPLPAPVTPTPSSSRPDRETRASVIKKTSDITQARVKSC

T2: IRF1 (mouse, UniProt P15314 1-329)
T2 sequence: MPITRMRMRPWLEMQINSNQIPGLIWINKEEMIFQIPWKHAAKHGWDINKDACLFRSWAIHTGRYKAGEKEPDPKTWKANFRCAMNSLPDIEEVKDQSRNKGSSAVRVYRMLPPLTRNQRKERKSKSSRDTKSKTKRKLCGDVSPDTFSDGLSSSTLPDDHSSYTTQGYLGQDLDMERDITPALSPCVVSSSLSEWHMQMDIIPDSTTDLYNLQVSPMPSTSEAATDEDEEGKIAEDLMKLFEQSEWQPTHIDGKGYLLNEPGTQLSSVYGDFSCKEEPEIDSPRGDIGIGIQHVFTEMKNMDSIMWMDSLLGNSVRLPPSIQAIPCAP

T3: IRF1;IRF2 (mouse;mouse, UniProt P15314;P23906 1-329;1-349, |)
T3 sequence 1: T2 sequence
T3 sequence 2: T1 sequence

T4: recombinant full-length mouse IRF1 (mouse, UniProt P15314 1-329)
T4 sequence (looked up): T2 sequence

B1: Gbp2 probe, GAAA core and 5'-flanking AA mutated (dsDNA)
DNA 1: CAGTGCCCGTGCCCCTACCCAGCAC
DNA 2: GTGCTGGGTAGGGGCACGGGCACTG
B2: DNA with a single AAA core (dsDNA)
DNA 1: CAGTGAAAGTGCCCCTACCCAGCAC
DNA 2: GTGCTGGGTAGGGGCACTTTCACTG
B3: Gbp2 promoter probe, single IRF motif (dsDNA)
DNA 1: CAGTGAAAGTGAAACTAAAAAGCAC
DNA 2: GTGCTTTTTAGTTTCACTTTCACTG
B4: recombinant mouse SPOP (aa28-329) (domain or fragment, UniProt Q6ZWS8 28-329, looked up)
chain: KVVKFSYMWTINNFSFCREEMGEVIKSSTFSSGANDKLKWCLRVNPKGLDEESKDYLSLYLLLVSCPKSEVRAKFKFSILNAKGEETKAMESQRAYRFVQGKDWGFKKFIRRDFLLDEANGLLPDDKLTLFCEVSVVQDSVNISGQNTMNMVKVPECRLADELGGLWENSRFTDCCLCVAGQEFQAHKAILAARSPVFSAMFEHEMEESKKNRVEINDVEPEVFKEMMCFIYTGKAPNLDKMADDLLAAADKYALERLKVMCEDALCSNLSVENAAEILILADLHSADQLKTQAVDFINYHA

Columns and labels:
[1] = biological target: T1, IRF2; assay: EMSA
[2] = biological target: T2, IRF1; assay: EMSA
[3] = biological target: SPOP (mouse, UniProt Q6ZWS8 28-329); assay: EMSA
[4] = biological target: T3, IRF1;IRF2; assay: EMSA
[5] = biological target: IRF1;SPOP (mouse;mouse, UniProt P15314;Q6ZWS8 1-329;28-329, |); assay: EMSA
[6] = biological target: T4, recombinant full-length mouse IRF1; assay: native gel or EMSA

| binding result [6] | Binder | binding result [1] | binding result [2] | binding result [3] | binding result [4] | binding result [5] |
| --- | --- | --- | --- | --- | --- | --- |
| – | B1 | no binding | no binding | – | – | – |
| – | B2 | – | no binding | – | – | – |
| – | B3 | binds | binds | no binding | binds | binds |
| binds | B4 | – | – | – | – | – |

— article doi:10.1101/2025.09.23.678148 (bioRxiv, 2025)
